Measurements: publication PMC7020990, “Structural and biochemical analysis of the metallo‐β‐lactamase L1 from emerging pathogen Stenotrophomonas maltophilia revealed the subtle but distinct di‐metal scaffold for catalytic activity” (Protein Science : A Publication of the Protein Society, 2019)

Target: the molecule itself
Experiment: crystal structure; L1‐Native in space group P2_(1) with the tetramer in the asymmetric unit; all other L1 structures in P6_(4)22 with one chain in the asymmetric unit and the same tetramer formed by crystallographic twofold symmetries

B1: Metallo‐β‐lactamase L1 from Stenotrophomonas maltophilia K279a (enzyme)
chain: SNASAAEAPLPQLRAYTVDASWLQPMAPLQVADHTWQIGTEDLTALLVQTAEGAVLLDGGMPQMAGHLLDNMKLRGVAPQDLRLILLSHAHADHAGPVAELKRRTGAHVAANAETAVLLARGGSNDLHFGDGITYPPASADRIIMDGEVVTVGGIAFTAHFMPGHTPGSTAWTWTDTRDGKPVRIAYADSLSAPGYQLKGNPRYPRLIEDYKRSFATVRALPCDLLLTPHPGASNWNYAVGSKASAEALTCNAYADAAEKKFDAQLARETAGTR
notes: N-terminal Ser‐Asn‐Ala cloning artifact left after TEV cleavage (numbered residues 17–19); Metallo‐β‐lactamase L1 (subclass B3), S. maltophilia K279a, residues 20-290; 88% identical to the L1 of the other strain in earlier structures; Two Zn ions per chain in the native form; Cloned in pMCSG53; also called L1 MBL; L1‐Native; not shown: His‐tag, N-terminal, cleaved
In the case of B1, the “stoichiometry N” value is reported as 4.
